Data as given in publication PMC8366450, “Human CPPED1 belongs to calcineurin‐like metallophosphoesterase superfamily and dephosphorylates PI3K‐AKT pathway component PAK4” (Journal of Cellular and Molecular Medicine, 2021).

B1: Interferon-stimulated exonuclease gene 20 (enzyme)
chain: not shown
notes: Interferon-stimulated exonuclease gene 20, human, as on the HuProt v3.1 array; also called ISG20; source: S. cerevisiae, purified (GST tag); on bought array: HuProt v3.1, Cambridge Protein Arrays
B2: CRK proto-oncogene, adaptor protein (natural protein, human, UniProt P46108 1-304, looked up)
chain: MAGNFDSEERSSWYWGRLSRQEAVALLQGQRHGVFLVRDSSTSPGDYVLSVSENSRVSHYIINSSGPRPPVPPSPAQPPPGVSPSRLRIGDQEFDSLPALLEFYKIHYLDTTTLIEPVSRSRQGSGVILRQEEAEYVRALFDFNGNDEEDLPFKKGDILRIRDKPEEQWWNAEDSEGKRGMIPVPYVEKYRPASASVSALIGGNQEGSHPQPLGGPEPGPYAQPSVNTPLPNLQNGPIYARVIQKRVPNAYDKTALALEVGELVKVTKINVSGQWEGECNGKRGHFPFTHVRLLDQQNPDEDFS
notes: CRK proto-oncogene, adaptor protein, human, as on the HuProt v3.1 array; source: S. cerevisiae, purified (GST tag); on bought array: HuProt v3.1, Cambridge Protein Arrays
B3: Cell division cycle associated 3 (natural protein, human, UniProt Q99618 1-268, looked up)
chain: MGSAKSVPVTPARPPPHNKHLARVADPRSPSAGILRTPIQVESSPQPGLPAGEQLEGLKHAQDSDPRSPTLGIARTPMKTSSGDPPSPLVKQLSEVFETEDSKSNLPPEPVLPPEAPLSSELDLPLGTQLSVEEQMPPWNQTEFPSKQVFSKEEARQPTETPVASQSSDKPSRDPETPRSSGSMRNRWKPNSSKVLGRSPLTILQDDNSPGTLTLRQGKRPSPLSENVSELKEGAILGTGRLLKTGGRAWEQGQDHDKENQHFPLVES
notes: Cell division cycle associated 3, human, as on the HuProt v3.1 array; also called CDCA3; source: S. cerevisiae, purified (GST tag); on bought array: HuProt v3.1, Cambridge Protein Arrays
B4: HIV-1 Tat interactive protein 2 (natural protein, human, UniProt Q9BUP3 1-242, looked up)
chain: MAETEALSKLREDFRMQNKSVFILGASGETGRVLLKEILEQGLFSKVTLIGRRKLTFDEEAYKNVNQEVVDFEKLDDYASAFQGHDVGFCCLGTTRGKAGAEGFVRVDRDYVLKSAELAKAGGCKHFNLLSSKGADKSSNFLYLQVKGEVEAKVEELKFDRYSVFRPGVLLCDRQESRPGEWLVRKFFGSLPDSWASGHSVPVVTVVRAMLNNVVRPRDKQMELLENKAIHDLGKAHGSLKP
notes: also called HTATIP2; source: S. cerevisiae, purified (GST tag); on bought array: HuProt v3.1, Cambridge Protein Arrays

The binders below were run against T1, human recombinant CPPED1 with N-terminal His-V5 dual tag (human, UniProt Q9BRF8 1-314) (assay: peptide or protein array; HuProt v3.1 human proteome microarray; >20 000 human recombinant proteins immobilised on the array; purified His-V5-CPPED1 applied). Details: both partners purified.
T1 construct: Calcineurin-like phosphoesterase domain-containing protein 1 (CPPED1), human; cloned into PSF-OXB20-NH2-6HIS-V5-TEV; 38.9 kDa including the His-V5 dual tag; The vector name holds a TEV site; no cleavage is told; also called calcineurin-like phosphoesterase domain-containing protein 1; purified recombinant CPPED1; not shown: His6, N-terminal, kept; V5, N-terminal, kept

| Binder | binding result |
| --- | --- |
| B1 | binds |
| B2 | binds |
| B3 | binds |
| B4 | binds |
